Our source for the coIP efficiency index (normalised to wt) and percent of parent (percent to wt) values is PMC8546710.

Test [1] concerns the target CDV M protein (strain A75/17) mutant G245P (canine distemper virus, strain A75/17). Briefly: co-IP; FLAG-M and 2×HA-longlinker-M, both bearing the same mutation, cotransfected in HEK-293T; lysed 24 h posttransfection in 50 mM Tris pH 7.4, 150 mM NaCl, 0.05% NP-40, 5% glycerol, 20 mM sodium molybdate; IP with anti-HA (16B12) and Dynabeads Protein G at 4°C; blot with polyclonal anti-CDV M; coIP efficiency index = (coIP/IP)/(ratio in total lysates), normalised to wt = 100%.

Test [2] deals with CDV M protein (strain A75/17) mutant K238E (canine distemper virus, strain A75/17). Described as above.
Test [3] addresses CDV M protein (strain A75/17) mutant A94S. Briefly: coimmunoprecipitation (coIP efficiency index, Western blot band quantification). The note with it: 2xHA-M and FLAG-M co-expressed in HEK-293T cells; IP anti-HA, IB anti-M; parent: est. 100; read off a plot. On the technique in general: In western blotting, separated proteins are transferred to a membrane and probed.
For test [4], the target named is CDV M protein (strain A75/17) mutant D235N. The test is described as above. The note with it: 2xHA-M and FLAG-M co-expressed in HEK-293T cells; IP anti-HA, IB anti-M; parent: est. 100; read off a plot.
Test [5] has as its target CDV M protein (strain A75/17) mutant E89D. Described as above. The note with it: 2xHA-M and FLAG-M co-expressed in HEK-293T cells; IP anti-HA, IB anti-M; parent: est. 100; read off a plot.
Test [6] deals with CDV M protein (strain A75/17) mutant E89G. The test is described as above. The note with it: 2xHA-M and FLAG-M co-expressed in HEK-293T cells; IP anti-HA, IB anti-M; parent: est. 100; read off a plot.
Test [7] deals with CDV M protein (strain A75/17) mutant E89H. The test is described as above. The note with it: 2xHA-M and FLAG-M co-expressed in HEK-293T cells; IP anti-HA, IB anti-M; parent: est. 100; read off a plot.
In test [8] the target is CDV M protein (strain A75/17) mutant E89K. The test is described as above. Particulars: 2xHA-M and FLAG-M co-expressed in HEK-293T cells; IP anti-HA, IB anti-M; parent: est. 100; read off a plot.
Test [9] has as its target CDV M protein (strain A75/17) mutant E89R. The test is described as above. Particulars: 2xHA-M and FLAG-M co-expressed in HEK-293T cells; IP anti-HA, IB anti-M; parent: est. 100; read off a plot.
In test [10] the target is CDV M protein (strain A75/17) mutant E89Y. The description is as above. Particulars: 2xHA-M and FLAG-M co-expressed in HEK-293T cells; IP anti-HA, IB anti-M; parent: est. 100; read off a plot.
The target of test [11] is CDV M protein (strain A75/17) mutant E242Q. The test is described as above. Particulars: 2xHA-M and FLAG-M co-expressed in HEK-293T cells; IP anti-HA, IB anti-M; parent: est. 100; read off a plot.
Test [12] concerns the target CDV M protein (strain A75/17) mutant G245P. The test is described as above. The note with it: 2xHA-M and FLAG-M co-expressed in HEK-293T cells; IP anti-HA, IB anti-M; parent: est. 100; read off a plot.
Test [13] deals with CDV M protein (strain A75/17) mutant K92E. Described as above. Particulars: 2xHA-M and FLAG-M co-expressed in HEK-293T cells; IP anti-HA, IB anti-M; parent: est. 100; read off a plot.
The target in test [14] is CDV M protein (strain A75/17) mutant K238E. Described as above. The note with it: 2xHA-M and FLAG-M co-expressed in HEK-293T cells; IP anti-HA, IB anti-M; bar marked 'Poorly expressed'; parent: est. 100; read off a plot.
The target of test [15] is CDV M protein (strain A75/17) mutant K240Q. The description is as above. The note with it: 2xHA-M and FLAG-M co-expressed in HEK-293T cells; IP anti-HA, IB anti-M; parent: est. 100; read off a plot.
The target of test [16] is CDV M protein (strain A75/17) mutant K243E. The test is described as above. The note with it: 2xHA-M and FLAG-M co-expressed in HEK-293T cells; IP anti-HA, IB anti-M; parent: est. 100; read off a plot.
In test [17] the target is CDV M protein (strain A75/17) mutant L96N. Described as above. Particulars: 2xHA-M and FLAG-M co-expressed in HEK-293T cells; IP anti-HA, IB anti-M; parent: est. 100; read off a plot.
Test [18] concerns the target CDV M protein (strain A75/17) mutant L239D. Described as above. The note with it: 2xHA-M and FLAG-M co-expressed in HEK-293T cells; IP anti-HA, IB anti-M; parent: est. 100; read off a plot.
In test [19] the target is CDV M protein (strain A75/17) mutant P87A. The test is described as above. Particulars: 2xHA-M and FLAG-M co-expressed in HEK-293T cells; IP anti-HA, IB anti-M; parent: est. 100; read off a plot.
In test [20] the target is CDV M protein (strain A75/17) mutant Y236F. The description is as above. Particulars: 2xHA-M and FLAG-M co-expressed in HEK-293T cells; IP anti-HA, IB anti-M; parent: est. 100; read off a plot.

On to “CDV M protein (strain A75/17) mutant G245P (natural protein)”, for which the coIP efficiency index (normalised to wt) in test [1] was found to be 3.8%.

“CDV M protein (strain A75/17) mutant K238E (natural protein)”: the coIP efficiency index (normalised to wt) in test [2] worked out at 9.7%.

Turning to “canine distemper virus (CDV) matrix (M) protein, strain A75/17, wild type A94S”, the percent of parent (percent to wt) in test [3] came to 98.

As for “canine distemper virus (CDV) matrix (M) protein, strain A75/17, wild type D235N”, in test [4], the percent of parent (percent to wt) is 120.

On to “canine distemper virus (CDV) matrix (M) protein, strain A75/17, wild type E89D”, for which the percent of parent (percent to wt) in [5] worked out at 80.

As to “canine distemper virus (CDV) matrix (M) protein, strain A75/17, wild type E89G”, the percent of parent (percent to wt) in [6] was found to be 47.

“canine distemper virus (CDV) matrix (M) protein, strain A75/17, wild type E89H”: the percent of parent (percent to wt) in [7] amounted to 98.

Regarding “canine distemper virus (CDV) matrix (M) protein, strain A75/17, wild type E89K”, in [8], the percent of parent (percent to wt) was 83.

Consider “canine distemper virus (CDV) matrix (M) protein, strain A75/17, wild type E89R”, for which, in test [9], the percent of parent (percent to wt) amounted to 77.

With “canine distemper virus (CDV) matrix (M) protein, strain A75/17, wild type E89Y”, the percent of parent (percent to wt) in test [10] came to 91.

Turning to “canine distemper virus (CDV) matrix (M) protein, strain A75/17, wild type E242Q”, the percent of parent (percent to wt) in test [11] is 150.

Consider “canine distemper virus (CDV) matrix (M) protein, strain A75/17, wild type G245P”, for which, in test [12], the percent of parent (percent to wt) was determined as 4.

With “canine distemper virus (CDV) matrix (M) protein, strain A75/17, wild type K92E”, the percent of parent (percent to wt) in test [13] turned out to be 87.

As for “canine distemper virus (CDV) matrix (M) protein, strain A75/17, wild type K238E”, the percent of parent (percent to wt) in [14] was found to be 9.

Take “canine distemper virus (CDV) matrix (M) protein, strain A75/17, wild type K240Q”: the percent of parent (percent to wt) in test [15] stood at 100.

On to “canine distemper virus (CDV) matrix (M) protein, strain A75/17, wild type K243E”, for which the percent of parent (percent to wt) in test [16] was 97.

Take “canine distemper virus (CDV) matrix (M) protein, strain A75/17, wild type L96N”: the percent of parent (percent to wt) in test [17] came out at 96.

Turning to “canine distemper virus (CDV) matrix (M) protein, strain A75/17, wild type L239D”, in test [18], the percent of parent (percent to wt) stood at 110.

Take “canine distemper virus (CDV) matrix (M) protein, strain A75/17, wild type P87A”: the percent of parent (percent to wt) in test [19] came to 120.

As for “canine distemper virus (CDV) matrix (M) protein, strain A75/17, wild type Y236F”, the percent of parent (percent to wt) in [20] is 84.
